The values below come from patent publication US20070036781A1.

In assay [1] the target is T1, short form of human CCRL2 (CRAM-B) (human) (UniProt O00421).
T1 sequence: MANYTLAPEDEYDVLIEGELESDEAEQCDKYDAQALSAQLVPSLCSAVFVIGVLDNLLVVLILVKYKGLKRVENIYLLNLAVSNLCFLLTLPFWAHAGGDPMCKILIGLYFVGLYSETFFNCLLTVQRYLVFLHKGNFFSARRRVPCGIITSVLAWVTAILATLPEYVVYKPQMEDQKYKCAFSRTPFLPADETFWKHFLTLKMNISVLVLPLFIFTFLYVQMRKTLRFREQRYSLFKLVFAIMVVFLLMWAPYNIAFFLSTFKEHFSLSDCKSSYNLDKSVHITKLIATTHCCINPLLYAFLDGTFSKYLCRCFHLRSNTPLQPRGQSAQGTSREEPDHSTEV
As to the kind of experiment: cell-based or functional assay.

For assay [2], the target named is Corticotropin Releasing Factor Receptor (CRFR), CRF-R1 (UniProt P34998). As to the kind of experiment: cell-based or functional assay.
Chain of UniProt P34998 (P34998 24-415 limits assumed): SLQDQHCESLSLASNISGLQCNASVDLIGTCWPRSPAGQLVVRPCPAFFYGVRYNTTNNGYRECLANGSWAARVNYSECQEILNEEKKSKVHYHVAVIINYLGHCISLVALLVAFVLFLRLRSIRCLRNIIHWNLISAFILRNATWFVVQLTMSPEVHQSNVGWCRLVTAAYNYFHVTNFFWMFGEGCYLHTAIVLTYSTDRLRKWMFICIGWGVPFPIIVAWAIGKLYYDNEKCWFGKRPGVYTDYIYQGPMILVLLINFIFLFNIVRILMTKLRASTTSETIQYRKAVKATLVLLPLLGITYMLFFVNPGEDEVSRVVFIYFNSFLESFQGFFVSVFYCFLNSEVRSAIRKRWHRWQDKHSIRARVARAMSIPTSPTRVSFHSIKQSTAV

“Monocyte chemotactic protein-1 (MCP-1) (from UniProt P13500 24-99) (ligand)” registered a LacZ activity, Gq-transplant yeast, 10^-6 M ligand in assay [1] of 5.7 LacZ units.

As to “Monocyte chemotactic protein-3 (MCP-3) (from UniProt P80098 24-99) (ligand)”, in assay [1], the LacZ activity, Gi2-transplant yeast, 10^-6 M ligand was 2.2 LacZ units and the chemotaxis of CCRL2 transfected cells, 10 nM chemokine; more cells passing across the membrane than untreated cells came out at 35%.

B1: macrophage inflammatory protein-4 (MIP-4) (ligand)
chain: AQVGTNKELCCLVYTSWQIPQKFIVDYSETSPQCPKPGVILLTKRGRQICADPNKKWVQKYISDLKLNA
In assay [1], B1 registered a LacZ activity, Gi3-transplant yeast, 10^-6 M ligand of 6.5 LacZ units and a chemotaxis of CCRL2 transfected cells, 10 nM chemokine; more cells passing across the membrane than untreated cells of 35%.

In the case of DNPSLSIDLTFHLLRTLLELARTQSQRERAEQNRIIFDSV (peptide, UniProt P55089 83-122, looked up) [Urocortin], the LacZ activity, Gq-transplant yeast, 10^-6 M ligand in assay [2] turned out to be 6.9 LacZ units.

For the molecule SEEPPISLDLTFHLLREVLEMARAEQLAQQAHSNRKLMEII (peptide, UniProt P06850 154-194, looked up) [Corticotrophin releasing factor (CRF)], in assay [2], the LacZ activity, Gi2-transplant yeast, 10^-6 M ligand was determined as 6.4 LacZ units and the LacZ activity, Gi3-transplant yeast, 10^-6 M ligand was 17.2 LacZ units.
